According to paper PMC4198461:

Target: T1, TRPV2, Q9WUD2
T1 chain: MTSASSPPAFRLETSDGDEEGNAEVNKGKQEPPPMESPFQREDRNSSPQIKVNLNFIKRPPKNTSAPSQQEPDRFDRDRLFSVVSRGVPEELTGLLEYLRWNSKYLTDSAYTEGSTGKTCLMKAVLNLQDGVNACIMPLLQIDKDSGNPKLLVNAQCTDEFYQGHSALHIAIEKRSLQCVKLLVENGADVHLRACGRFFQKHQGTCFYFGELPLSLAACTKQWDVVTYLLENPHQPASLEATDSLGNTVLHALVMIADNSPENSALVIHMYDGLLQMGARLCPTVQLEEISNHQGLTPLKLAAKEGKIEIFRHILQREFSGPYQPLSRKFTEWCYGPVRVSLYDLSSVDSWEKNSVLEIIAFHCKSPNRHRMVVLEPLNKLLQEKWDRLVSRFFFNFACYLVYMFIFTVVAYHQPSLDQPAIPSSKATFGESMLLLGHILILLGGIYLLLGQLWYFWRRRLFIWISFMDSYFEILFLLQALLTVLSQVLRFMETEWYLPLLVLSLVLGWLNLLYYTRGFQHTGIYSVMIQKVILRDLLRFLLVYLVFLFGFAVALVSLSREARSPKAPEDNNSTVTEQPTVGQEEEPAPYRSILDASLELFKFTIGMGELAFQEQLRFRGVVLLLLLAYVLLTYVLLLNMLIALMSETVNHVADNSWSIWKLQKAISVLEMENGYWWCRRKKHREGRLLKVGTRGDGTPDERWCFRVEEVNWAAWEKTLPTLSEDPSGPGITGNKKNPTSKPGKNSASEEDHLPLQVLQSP
Experiment: SEC + native gel or EMSA + other: negative-stain EM
Conditions: remark: other sources report otherwise

stoichiometry N: 4
B1: TRPV2, Q9WUD2 1-761 (natural protein)
chain: MTSASSPPAFRLETSDGDEEGNAEVNKGKQEPPPMESPFQREDRNSSPQIKVNLNFIKRPPKNTSAPSQQEPDRFDRDRLFSVVSRGVPEELTGLLEYLRWNSKYLTDSAYTEGSTGKTCLMKAVLNLQDGVNACIMPLLQIDKDSGNPKLLVNAQCTDEFYQGHSALHIAIEKRSLQCVKLLVENGADVHLRACGRFFQKHQGTCFYFGELPLSLAACTKQWDVVTYLLENPHQPASLEATDSLGNTVLHALVMIADNSPENSALVIHMYDGLLQMGARLCPTVQLEEISNHQGLTPLKLAAKEGKIEIFRHILQREFSGPYQPLSRKFTEWCYGPVRVSLYDLSSVDSWEKNSVLEIIAFHCKSPNRHRMVVLEPLNKLLQEKWDRLVSRFFFNFACYLVYMFIFTVVAYHQPSLDQPAIPSSKATFGESMLLLGHILILLGGIYLLLGQLWYFWRRRLFIWISFMDSYFEILFLLQALLTVLSQVLRFMETEWYLPLLVLSLVLGWLNLLYYTRGFQHTGIYSVMIQKVILRDLLRFLLVYLVFLFGFAVALVSLSREARSPKAPEDNNSTVTEQPTVGQEEEPAPYRSILDASLELFKFTIGMGELAFQEQLRFRGVVLLLLLAYVLLTYVLLLNMLIALMSETVNHVADNSWSIWKLQKAISVLEMENGYWWCRRKKHREGRLLKVGTRGDGTPDERWCFRVEEVNWAAWEKTLPTLSEDPSGPGITGNKKNPTSKPGKNSASEEDHLPLQVLQSP
